Where a chain is given by its changes, count along the chain named. Where two headings read alike, the source gives them in different places.
What was measured:
[1] = target: T1, PTx-S1-220 (truncated PTx-S1, residues 1-220, strain Tohama I, variant B) (Bordetella pertussis, UniProt P04977 35-254)
T1 sequence: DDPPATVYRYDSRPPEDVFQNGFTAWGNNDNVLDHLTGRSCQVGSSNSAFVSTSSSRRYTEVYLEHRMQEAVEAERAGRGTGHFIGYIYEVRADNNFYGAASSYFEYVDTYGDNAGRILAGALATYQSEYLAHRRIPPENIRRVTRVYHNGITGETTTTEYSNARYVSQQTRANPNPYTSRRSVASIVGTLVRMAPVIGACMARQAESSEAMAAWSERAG

[2] = target: T2, pertussis toxin holotoxin (Bordetella pertussis, UniProt P04977 35-269; P04978 31-226; P04979 32-227; P0A3R5 43-152; P04981 36-133); assay: SPR (BIAcore 3000), mAb 1B7 immobilised on CM5 chip, toxin injected
T2 construct: also called PTx; PT

[3] = target: pertussis toxin B-oligomer (Bordetella pertussis, UniProt P04978 31-226; P04979 32-227; P0A3R5 43-152; P04981 36-133); assay: as above
[4] = target: full length PTx-S1 (1-235) protomer (Bordetella pertussis, UniProt P04977 35-269); assay: as above
[5] = target: T1, PTx-S1-220 (truncated PTx-S1, residues …); assay: as above
[6] = target: T3, PTx-S1A (residues 1-220, M194I) (Bordetella pertussis, UniProt P04977 35-254); assay: as above
T3 chain: T1 sequence with M194I

[7] = target: T4, PTx-S1D (residues 1-220, D34E, I198V) (Bordetella pertussis, UniProt P04977 35-254); assay: as above
T4 chain: T1 sequence with D34E, I198V

[8] = target: T5, PTx-S1 9K/129G (residues 1-220, R9K, E129G) (Bordetella pertussis, UniProt P04977 35-254); assay: as above
T5 chain: T1 sequence with R9K, E129G

PTx-S1-220 R146A = target: T6, PTx-S1-220 R146A (Bordetella pertussis, UniProt P04977 35-254); assay: as above
T6 chain: T1 sequence with R146A

PTx-S1-220 Y161A = target: T7, PTx-S1-220 Y161A (Bordetella pertussis, UniProt P04977 35-254); assay: as above
T7 chain: T1 sequence with Y161A

PTx-S1-220 R79A = target: T8, PTx-S1-220 R79A (Bordetella pertussis, UniProt P04977 35-254); assay: as above
T8 chain: T1 sequence with R79A

[9] = target: T2, pertussis toxin holotoxin; assay: competition ELISA (Friguet), 5 nM antibody with PT in solution, coated PT

B1: murine monoclonal antibody 1B7 (antibody, V domains shown)
VH: EVQLQQSGSELVRPGASVKLSCKASGYKFTSYWMHWVKQRPGQGLEWIGNIFPGSGSTNYDEKFNSKATLTVDTSSNTAYMQLSSLTSEDSAVYYCTRWLSGAYFDYWGQGTTLTVSS
VL: DIQMTQSPALMSASPGEKVTMTCSASSSVSFMYWYQQKPRSSPKPWIYLTSNLPSGVPARFSGSGSGTSYSLTISSMEAEDAATYYCQQWSSHPPTFGSGTKLEIKR
notes: also called mAb 1B7; 1B7 mAb
Which koff [1] does the source give for B1 here?
Its koff is 0.0019 s⁻¹.

And the koff [2]?
Its koff is 0.0004 s⁻¹.

And the koff [3]?
Its koff is 0.0027 s⁻¹.

And the koff [4]?
Its koff is 0.0019 s⁻¹.

And the koff [5]?
The koff was 0.0014 s⁻¹.

What about the koff [6] of the same binder?
The koff was 0.00071 s⁻¹.

What about the koff [7] of the same binder?
Its koff is 0.00095 s⁻¹.

What about the koff [8] of the same binder?
The koff was 0.0016 s⁻¹.

What about the koff (PTx-S1-220 R146A) of the same binder?
The koff was 0.0015 s⁻¹.

What about the koff (PTx-S1-220 Y161A) of the same binder?
The koff was 0.0013 s⁻¹.

What about the koff (PTx-S1-220 R79A) of the same binder?
The koff was 0.025 s⁻¹.

What about the Kd [9] of the same binder?
The Kd was 1.1 nM.
